T1: extracellular domain of human PRLR (monomeric, soluble) (human, UniProt P16471 25-234)
T1 construct: also called ECD-PRLR; ECD of PRLR
T1 sequence: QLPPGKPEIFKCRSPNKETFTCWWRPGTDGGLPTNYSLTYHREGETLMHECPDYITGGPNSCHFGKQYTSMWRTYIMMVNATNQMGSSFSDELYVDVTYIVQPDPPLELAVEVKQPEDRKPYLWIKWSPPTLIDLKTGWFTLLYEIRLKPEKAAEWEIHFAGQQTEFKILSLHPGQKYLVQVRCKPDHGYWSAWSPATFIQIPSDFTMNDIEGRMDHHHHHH

B1: 005-C04-L2-1-11-3 (Fab, V domains shown)
VH: EVQLLESGGGLVQPGGSLRLSCAASGFTFSSYWNHWVRQAPGKGLEWVSDMSSLSSYTNYADSVKGRFTISRDNSKNTLYLQMNSLRAEDTAVYYCARGLDARRMDYWGQGTLVTVTS
VL: QSVLTQPPSASGTPGQRVTISCTGSSSNIGAGYVVHWYQQLPGTAPKLLIYRNNVRPSGVPDRFSGSKSGTSASLAISGLRSEDEADYYCAAWDDSLNGWLFGGGTKLTVLG
notes: Maturated 005-C04 variant; Fab in E. coli supernatant, flag-detected
B2: 005-C04-L2-1-25-7 (Fab, V domains shown)
VH: EVQLLESGGGLVQPGGSLRLSCAASGFTFSSYWWHWVRQAPGKGLEWVSDIARASSYTNYADSVKGRFTISRDNSKNTLYLQMNSLRAEDTAVYYCARGLDARRMDYWGQGTLVTVTS
VL: QSVLTQPPSASGTPGQRVTISCTGSSSNIGYGYVVHWYQQLPGTAPKLLIYRNNWRPSGVPDRFSGSKSGTSASLAISGLRSEDEADYYCAAWDDSLNGWLFGGGTKLTVLG
notes: as for B1
B3: 005-C04-L2-1-25-4 (Fab, V domains shown)
VH: EVQLLESGGGLVQPGGSLRLSCAASGFTFSSYWNHWVRQAPGKGLEWVSDISRLSPYTNYADSVKGRFTISRDNSKNTLYLQMNSLRAEDTAVYYCARGLDARRMDYWGQGTLVTVTS
VL: QSVLTQPPSASGTPGQRVTISCTGSSSNIGAGYVVHWYQQLPGTAPKLLIYRNNQRQSGVPDRFSGSKSGTSASLAISGLRSEDEADYYCAAWDDSLNGWLFGGGTKLTVLG
notes: as for B1
B4: 005-C04-L2-1-20-1 (Fab, V domains shown)
VH: EVQLLESGGGLVQPGGSLRLSCAASGFTFSSYWWHWVRQAPGKGLEWVSDIARASSYTNYADSVKGRFTISRDNSKNTLYLQMNSLRAEDTAVYYCARGLDARRMDYWGQGTLVTVTS
VL: QSVLTQPPSASGTPGQRVTISCTGSSSNIGYGYVVHWYQQLPGTAPKLLIYRNNWRPSGVPDRFSGSKSGTSASLAISGLRSEDEADYYCAAWDDSLNGWLFGGGTKLTVLG
notes: as for B1
B5: 005-C04-L2-1-40-7 (Fab, V domains shown)
VH: EVQLLESGGGLVQPGGSLRLSCAASGFTFSSYWNHWVRQAPGKGLEWVSDIASASSYTGYADSVKGRFTISRDNSKNTLYLQMNSLRAEDTAVYYCARGLDARRMDYWGQGTLVTVTS
VL: QSVLTQPPSASGTPGQRVTISCTGSSSNIGAGYVVHWYQQLPGTAPKLLIYRNNWRQSGVPDRFSGSKSGTSASLAISGLRSEDEADYYCAAWDDSLNGWLFGGGTKLTVLG
notes: as for B1
B6: 005-C04-L2-1-25-5 (Fab, V domains shown)
VH: EVQLLESGGGLVQPGGSLRLSCAASGFTFSSYWNHWVRQAPGKGLEWVSDMASLSPYTGYADSVKGRFTISRDNSKNTLYLQMNSLRAEDTAVYYCARGLDARRMDYWGQGTLVTVTS
VL: QSVLTQPPSASGTPGQRVTISCTGSSSNIGAGYVVHWYQQLPGTAPKLLIYRNNQRQSGVPDRFSGSKSGTSASLAISGLRSEDEADYYCAAWDDSLNGWLFGGGTKLTVLG
notes: as for B1
B7: 005-C04-L2-1-12-4 (Fab, V domains shown)
VH: EVQLLESGGGLVQPGGSLRLSCAASGFTFSSYWNHWVRQAPGKGLEWVSDIARLSSYTNYADSVKGRFTISRDNSKNTLYLQMNSLRAEDTAVYYCARGLDARRMDYWGQGTLVTVTS
VL: QSVLTQPPSASGTPGQRVTISCTGSSSNIGAGYVVHWYQQLPGTAPKLLIYRNNWRPSGVPDRFSGSKSGTSASLAISGLRSEDEADYYCAAWDDSLNGWLFGGGTKLTVLG
notes: as for B1
B8: 005-C04-L2-1-42-0 (Fab, V domains shown)
VH: EVQLLESGGGLVQPGGSLRLSCAASGFTFSSYWNHWVRQAPGKGLEWVSDIARASSYTGYADSVKGRFTISRDNSKNTLYLQMNSLRAEDTAVYYCARGLDARRMDYWGQGTLVTVTS
VL: QSVLTQPPSASGTPGQRVTISCTGSSSNIGAGYVVHWYQQLPGTAPKLLIYRNNWRQSGVPDRFSGSKSGTSASLAISGLRSEDEADYYCAAWDDSLNGWLFGGGTKLTVLG
notes: as for B1
B9: 005-C04-L2-1-36-6 (Fab, V domains shown)
VH: EVQLLESGGGLVQPGGSLRLSCAASGFTFSSYWNHWVRQAPGKGLEWVSDMASLSSYTNYADSVKGRFTISRDNSKNTLYLQMNSLRAEDTAVYYCARGLDARRMDYWGQGTLVTVTS
VL: QSVLTQPPSASGTPGQRVTISCTGSSSNIGAGYVVHWYQQLPGTAPKLLIYRNNWRQSGVPDRFSGSKSGTSASLAISGLRSEDEADYYCAAWDDSLNGWLFGGGTKLTVLG
notes: as for B1
B10: 005-C04-L2-1-40-2 (Fab, V domains shown)
VH: EVQLLESGGGLVQPGGSLRLSCAASGFTFSSYWNHWVRQAPGKGLEWVSDISRASPYTGYADSVKGRFTISRDNSKNTLYLQMNSLRAEDTAVYYCARGLDARRMDYWGQGTLVTVTS
VL: QSVLTQPPSASGTPGQRVTISCTGSSSNIGAGYVVHWYQQLPGTAPKLLIYRNNQRQSGVPDRFSGSKSGTSASLAISGLRSEDEADYYCAAWDDSLNGWLFGGGTKLTVLG
notes: as for B1
B11: 005-C04-L2-1-25-0 (Fab, V domains shown)
VH: EVQLLESGGGLVQPGGSLRLSCAASGFTFSSYWWHWVRQAPGKGLEWVSDIARASSYTNYADSVKGRFTISRDNSKNTLYLQMNSLRAEDTAVYYCARGLDARRMDYWGQGTLVTVTS
VL: QSVLTQPPSASGTPGQRVTISCTGSSSNIGAGYVVHWYQQLPGTAPKLLIYRNNWRPSGVPDRFSGSKSGTSASLAISGLRSEDEADYYCAAWDDSLNGWLFGGGTKLTVLG
notes: as for B1
B12: 005-C04-L2-1-20-0 (Fab, V domains shown)
VH: EVQLLESGGGLVQPGGSLRLSCAASGFTFSSYWWHWVRQAPGKGLEWVSDMSRLSSYTNYADSVKGRFTISRDNSKNTLYLQMNSLRAEDTAVYYCARGLDARRMDYWGQGTLVTVTS
VL: QSVLTQPPSASGTPGQRVTISCTGSSSNIGAGYVVHWYQQLPGTAPKLLIYRNNVRQSGVPDRFSGSKSGTSASLAISGLRSEDEADYYCAAWDDSLNGWLFGGGTKLTVLG
notes: as for B1
B13: 005-C04-L2-1-16-4 (Fab, V domains shown)
VH: EVQLLESGGGLVQPGGSLRLSCAASGFTFSSYWNHWVRQAPGKGLEWVSDMSRLSSYTNYADSVKGRFTISRDNSKNTLYLQMNSLRAEDTAVYYCARGLDARRMDYWGQGTLVTVTS
VL: QSVLTQPPSASGTPGQRVTISCTGSSSNIGAGYVVHWYQQLPGTAPKLLIYRNNWRPSGVPDRFSGSKSGTSASLAISGLRSEDEADYYCAAWDDSLNGWLFGGGTKLTVLG
notes: as for B1
B14: 005-C04-L2-1-28-7 (Fab, V domains shown)
VH: EVQLLESGGGLVQPGGSLRLSCAASGFTFSSYWNHWVRQAPGKGLEWVSDMSSLSSYTGYADSVKGRFTISRDNSKNTLYLQMNSLRAEDTAVYYCARGLDARRMDYWGQGTLVTVTS
VL: QSVLTQPPSASGTPGQRVTISCTGSSSNIGAGYVVHWYQQLPGTAPKLLIYRNNVRQSGVPDRFSGSKSGTSASLAISGLRSEDEADYYCAAWDDSLNGWLFGGGTKLTVLG
notes: as for B1
B15: 005-C04-L2-1-21-7 (Fab, V domains shown)
VH: EVQLLESGGGLVQPGGSLRLSCAASGFTFSSYWWHWVRQAPGKGLEWVSDMSRLSSYTNYADSVKGRFTISRDNSKNTLYLQMNSLRAEDTAVYYCARGLDARRMDYWGQGTLVTVTS
VL: QSVLTQPPSASGTPGQRVTISCTGSSSNIGAGYVVHWYQQLPGTAPKLLIYRNNQRQSGVPDRFSGSKSGTSASLAISGLRSEDEADYYCAAWDDSLNGWLFGGGTKLTVLG
notes: as for B1
B16: 005-C04-L2-1-31-7 (Fab, V domains shown)
VH: EVQLLESGGGLVQPGGSLRLSCAASGFTFSSYWWHWVRQAPGKGLEWVSDIARLSPYTNYADSVKGRFTISRDNSKNTLYLQMNSLRAEDTAVYYCARGLDARRMDYWGQGTLVTVTS
VL: QSVLTQPPSASGTPGQRVTISCTGSSSNIGAGYVVHWYQQLPGTAPKLLIYRNNWRQSGVPDRFSGSKSGTSASLAISGLRSEDEADYYCAAWDDSLNGWLFGGGTKLTVLG
notes: as for B1
B17: 005-C04-L2-1-33-7 (Fab, V domains shown)
VH: EVQLLESGGGLVQPGGSLRLSCAASGFTFSSYWNHWVRQAPGKGLEWVSDIARLSPYTGYADSVKGRFTISRDNSKNTLYLQMNSLRAEDTAVYYCARGLDARRMDYWGQGTLVTVTS
VL: QSVLTQPPSASGTPGQRVTISCTGSSSNIGAGYVVHWYQQLPGTAPKLLIYRNNVRQSGVPDRFSGSKSGTSASLAISGLRSEDEADYYCAAWDDSLNGWLFGGGTKLTVLG
notes: as for B1
B18: 005-C04-L2-1-23-7 (Fab, V domains shown)
VH: EVQLLESGGGLVQPGGSLRLSCAASGFTFSSYWNHWVRQAPGKGLEWVSDISRASPYTGYADSVKGRFTISRDNSKNTLYLQMNSLRAEDTAVYYCARGLDARRMDYWGQGTLVTVTS
VL: QSVLTQPPSASGTPGQRVTISCTGSSSNIGAGYVVHWYQQLPGTAPKLLIYRNNWRPSGVPDRFSGSKSGTSASLAISGLRSEDEADYYCAAWDDSLNGWLFGGGTKLTVLG
notes: as for B1
B19: 005-C04-L2-1-38-3 (Fab, V domains shown)
VH: EVQLLESGGGLVQPGGSLRLSCAASGFTFSSYWNHWVRQAPGKGLEWVSDISRLSSYTNYADSVKGRFTISRDNSKNTLYLQMNSLRAEDTAVYYCARGLDARRMDYWGQGTLVTVTS
VL: QSVLTQPPSASGTPGQRVTISCTGSSSNIGYGYVVHWYQQLPGTAPKLLIYRNNWRPSGVPDRFSGSKSGTSASLAISGLRSEDEADYYCAAWDDSLNGWLFGGGTKLTVLG
notes: as for B1

target: T1, extracellular domain of human PRLR …; test: ELISA: plate coated with human PRLR extracellular domain, Fab-containing E. coli supernatant, anti-flag-HRP, Amplex Red
Description: 96 well microtiter plates were coated with 1 μg per milliliter of human PRLR. Plates were incubated over night at 4° C. After blocking with PBS buffer containing 3% bovine serum albumin, normalized E. coli-derived supernatants containing the Fab variants were added. Detection of formed complexes occurred via the addition of an anti-flag antibody (Sigma, A8592) labeled with horseradish peroxidase.

Binding result, binds:
B1
B2
B3
B4
B5
B6
B7
B8
B9
B10
B11
B12
B13
B14
B15
B16
B17
B18
B19

Source: patent US20130129739A1 (Bayer, published 2013)
